According to article PMC5397151 (Nucleic Acids Research, 2017):

Assays:
pyRbkR = test: HPLC end-point riboflavin kinase assay, FMN detected at […] nm; assay type: biochemical, Pyrobaculum yellowstonensis; conditions: read-out: apparent Km; saturating CTP (0.2 mM), 5 mM MgCl2, 0.1 M NaCl, HEPES pH 8, 60 °C
crystal structure = biological target: the molecule itself; test: crystal structure
taRbkR [1] = biological target: T1, taRbkR (Thermoplasma acidophilum, UniProt Q9HJA6 1-220); test: X-ray crystallography 1.85 A
T1 sequence: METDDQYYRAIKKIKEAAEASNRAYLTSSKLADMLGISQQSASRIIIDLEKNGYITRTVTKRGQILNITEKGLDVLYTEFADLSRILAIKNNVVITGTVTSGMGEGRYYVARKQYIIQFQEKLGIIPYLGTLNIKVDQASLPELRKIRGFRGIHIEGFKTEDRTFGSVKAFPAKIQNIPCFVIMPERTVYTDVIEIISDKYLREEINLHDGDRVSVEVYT

taRbkR [2] = biological target: T1, taRbkR; test: fluorescence polarization

Cc1cc2nc3c(=O)[nH]c(=O)nc-3n(C[C@H](O)[C@H](O)[C@H](O)CO)c2cc1C [riboflavin]
Km (pyRbkR): 73 ± 26 µM

B1: RbkR protein from Thermoplasma acidophilum (bifunctional riboflavin kinase/regulator) (natural protein)
chain: ETDDQYYRAIKKIKEAAEASNRAYLTSSKLADMLGISQQSASRIIIDLEKNGYITRTVTKRGQILNITEKGLDVLYTEFADLSRILAIKNNVVITGTVTSGMGEGRYYVARKQYIIQFQEKLGIIPYLGTLNIKVDQASLPELRKIRGFRGIHIEGFKTEDRTFGSVKAFPAKIQNIPCFVIMPERTVYTDVIEIISDKYLREEINLHDGDRVSVEVYT
stoichiometry N (crystal structure): 2

B2: ta ribT operator crystal duplex (dsDNA)
DNA 1: ATTACTAATTCACGAGTAA
DNA 2: TTTACTCGTGAATTAGTAA
binding result (taRbkR [1]): binds

B3: ta ribT 35 bp (dsDNA)
DNA 1: TATGCTACTAATTCACGAGTAATTACTCAAATATT
DNA 2: AATATTTGAGTAATTACTCGTGAATTAGTAGCATA
apparent K (half saturation) (taRbkR [2]): ~16 nM
